Measured values as given in patent US20240343761A1, “APELINERGIC MACROCYCLES AND USES THEREOF” (priority 2021, published 2024).
Where two headings read alike, the source gives them in different places. Numbered stars: 1 amine (or outer) side, 2 acyl side, 3 side chain; on linkers, the order of the positions; unused ones are H or OH. Bridge positions count the residues as written; N and C are the ends. Square brackets hold non-standard residues; d marks the D form. Ends that are not written are not given here. Peptide text beside a SMILES is read from it. * marks the point of attachment. cypTyr(OBn) = 3-cyclopentyl-O-benzyl-L-tyrosine, O=C([C@H](Cc1ccc(OCc2ccccc2)c(C2CCCC2)c1)N[*:1])[*:2]; Hyp(OBn) = O-benzyl-4-hydroxyproline, O=C([C@@H]1C[C@@H](OCc2ccccc2)CN1[*:1])[*:2]; cypY = 3-cyclopentyl-tyrosine, O=C([C@H](Cc1ccc(O[*:3])c(C2CCCC2)c1)N[*:1])[*:2]; Tyr(OBn) = O-benzyl-tyrosine, O=C([C@H](Cc1ccc(OCc2ccccc2)cc1)N[*:1])[*:2]; pent‑4‑enoyl = des-amino allylglycine (Ø = desamino analog), C=CCCC(=O)*; Rx = Nα-allyl-arginine, C=CCN([C@@H](CCCNC(=N)N)C(=O)[*:2])[*:1]; Alnb = Nγ-allyl-Nγ-nosyl-α,γ-diamino-butanoic acid; Oic = O=C(O)[C@@H]1C[C@@H]2CCCC[C@@H]2N1; Phe(4-Br) = N[C@@H](Cc1ccc(Br)cc1)C(=O)O; Benzoyl(4-Br) = O=C(c1ccc(Br)cc1)*; hArg = N=C(N)NCCCC[C@H](N)C(=O)O; dcypTyr(OBn) = not defined here; AllylGly = C=CC[C@H](N)C(=O)O; pGlu = O=C1CC[C@@H](C(=O)O)N1; Nle = CCCC[C@H](N)C(=O)O; AIH = not defined here; B1 = not defined here; B3 = not defined here

Legend:
human APJ (hAPJ) = target: T1, human APJ (hAPJ) (Homo sapiens, UniProt P35414); experiment: Competitive radioligand binding ([125I][Nle75,Tyr77][Pyr1]-Ape13) on membranes of HEK293 cells stably expressing human APJ; details: Ki binding
T1 construct: expressed in transfected cells; cell membranes
T1 sequence (P35414 1-380): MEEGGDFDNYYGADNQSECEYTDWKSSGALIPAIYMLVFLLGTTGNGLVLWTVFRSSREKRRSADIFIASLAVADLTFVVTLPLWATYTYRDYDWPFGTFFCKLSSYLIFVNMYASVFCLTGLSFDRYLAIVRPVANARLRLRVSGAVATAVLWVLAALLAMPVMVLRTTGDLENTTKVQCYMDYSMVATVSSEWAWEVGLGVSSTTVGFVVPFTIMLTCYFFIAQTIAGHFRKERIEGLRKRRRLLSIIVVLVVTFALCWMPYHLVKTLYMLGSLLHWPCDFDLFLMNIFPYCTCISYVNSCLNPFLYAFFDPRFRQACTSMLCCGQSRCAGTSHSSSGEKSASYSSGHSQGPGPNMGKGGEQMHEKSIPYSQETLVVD
Protocol: HEK293 cells stably expressing YFP-tagged human APJ were cultured in DMEM medium supplemented with 10% FBS, at 37° C. under a humid atmosphere maintaining 5% CO2. Antibiotic G418 (400 μg/mL) was added to maintain a selection pressure for APJ-expressing cells while penicillin/streptomycin (0.1%) were used to prevent bacterial contamination.
Binding experiments were performed on cell membranes of HEK293 stably expressing the YFP-tagged human APJ receptor. Cells were frozen at −80° C. for storage and quickly thawed right before the experiments (1 min at 37° C.). […] The precipitate (cell membranes) was suspended in binding buffer (50 mM Tris-HCl, 0.2% BSA, pH 7.4). Binding assays were run in 96-well plates. […] (820 Ci/mmol)^3 and test ligand with a range of concentrations from 10^−1 to 10^−11 M in a total volume of 200 μL for 1 h at room temperature.
The incubation mixtures were filtered through a glass fiber filter (Millipore, pre-absorbed of PEI 0.5% for 2 h at 4° C.) to remove unbound ligands, and the filter membranes were washed three times with 170 μL cold binding buffer (4° C.). The γ emission was measured using a 1470 Wizard γ-counter from PerkinElmer (Waltham, USA) (80% efficiency).

[1] = Rat plasma stability (half-life in vitro); format: in vitro ADME; details: male, Sprague-Dawley, rat, plasma, Table I; rat plasma, 37° C., up to 24 h
Protocol: Plasma was obtained from male Sprague-Dawley rats by collecting blood in heparin tube and centrifugating at 13,000 rpm to remove blood cells. The isolated plasma was stored at −80° C. and thawed right before the test. In 96-well plate, 6 μL of peptide solution at 1 mM was incubated with 27 μL of plasma at 37° C. in an oven equipped with orbital shaker. Tightly fitted caps were used to seal the wells to avoid water evaporation during incubation. […] A 96-well UPLC plate was put at the bottom to collect the samples. Both plates were centrifuged at 500 g for 10 min at 4° C. to accelerate the filtration. […] The quantity of remaining peptide was plotted into an exponential one-phase decay curve using GraphPad Prism 8 which allowed to calculate peptide half-life. The results were presented as mean±SEM of at least 3 independent experiments, each done in simplicate.
The percentage of remaining analogue was calculated by doing the ratio between AU of compound and AUC of internal standard. Half-lives were extrapolated from curves.

[2] = target: T2, YFP-tagged human APJ receptor (human, UniProt P35414 1-380); experiment: competitive radioligand binding, HEK293-hAPJ membranes
T2 construct: whole, on cells; also called hAPJ; APJ WT; not shown: YFP tag
T2 sequence (looked up): T1 sequence (P35414 1-380)

[3] = target: T3, human APJ (transfected HEK293 cells, Gαi1 BRET assay) (human, UniProt P35414 1-380); experiment: cell-based or functional assay
T3 sequence (looked up): T1 sequence (P35414 1-380)

[4] = target: T2, YFP-tagged human APJ receptor; experiment: competitive radioligand binding, HEK293-hAPJ membranes; remark: listed apart in the source
[5] = target: T3, human APJ (transfected HEK293 cells, …); experiment: cell-based or functional assay; remark: listed apart in the source
[6] = target: T2, YFP-tagged human APJ receptor; experiment: competitive radioligand binding, HEK293-hAPJ membranes; remark: listed apart in the source
[7] = target: T3, human APJ (transfected HEK293 cells, …); experiment: cell-based or functional assay; remark: listed apart in the source

## CC(C)C[C@@H]1NC(=O)[C@H](CCCNC(=N)N)NC(=O)[C@@H](N)CC=CC[C@@H](C(=O)N[C@@H](CCCCN)C(=O)NCC(=O)N2CCC[C@H]2C(=O)N[C@@H](C)C(=O)O)NC(=O)[C@H](CO)NC1=O [Compound 34, NH2-c[X-R-L-S-X]c-K-G-P-Ala] (H-[AllylGly]RLS[AllylGly]KGPA-OH; staple 1-5)
Human APJ (hAPJ)
  Ki: > 10000 nM
[1]
  half-life at 0.182 mM: 48 ± 18 min

## KRRE[Nle]CLHCRVPFP (lactam 1-4; disulfide 6-9) [Compound 79 (AM03-68)]
[2]
  Ki: 0.61 nM
[3]
  EC50 Gail: 4 nM

## Ac-KFRRQRPRLEHKKP[Nle]P[B1] (lactam 10-13; reading uncertain) [Compound 67 (KT02-18)]
[4]
  Ki: 12 nM

## H-[AllylGly]RLS[AllylGly]KGP[dY] (staple 1-5) [Compound 45 (KT04-42b)]
[5]
  Gαi1 Emax (%): 100%

## [pGlu]RRSEPLHKRV[Oic]FP (lactam 5-9) [Compound 78 (AM03-67)]
[2]
  Ki: 173 nM
[3]
  EC50 Gail: 24 nM

## [Nle]PEHSRKPFP (lactam 3-7) [Compound 84 (ABB01-109)]
[2]
  Ki: 274 nM

## [pGlu]R[AllylGly]RLS[AllylGly]KGP[Nle]PF (staple 3-7) [Compound 97]
[5]
  Gαi1 Emax (%): 101%

## [pGlu]RRSEPLHKRVP[Phe(4-Br)]P (lactam 5-9) [Compound 92 (KT03-15)]
[3]
  EC50 Gail: 16 nM

## [pGlu]RKRLSDKGP[Nle]PF (lactam 3-7) [Compound 17 (KT01-106)]
[6]
  Ki: 39 nM

## [pGlu][hArg]RSEPLHKRVPFP (lactam 5-9) [Compound 90 (KT03-16)]
[3]
  EC50 Gail: 15 nM

## Ac-KFRRQRPRLEHKKP[Nle]P[Tyr(OBn)] (lactam 10-13) [Compound 66 (KT03-02)]
[7]
  EC50 Gαi1: 21.7 nM
[4]
  Ki: 1.6 nM

## [Rx]RLS[AIH]KGP[Nle]PF (staple 1-5; reading uncertain) [Compound 26 (KT01-120)]
[6]
  Ki: 382 nM

## [pGlu]R[AllylGly]RLS[Alnb]KGP[Nle]PF (staple 3-7) [Compound 16 (KT01-123)]
[5]
  Gαi1 Emax (%): 102%

B1: Compound 27 (KT01-111) (peptide)
peptide: [pent‑4‑enoyl]RLS[AIH]KGP[Nle]PF
modifications: staple 1-5; not fully specified; printed as Ø-c[X-R-L-S-AIH]-K-G-P-Nle-P-F; reading uncertain
[6]
  Ki: 380 nM

## KRRE[Nle]PLHSRV[Oic]FP (lactam 1-4) [Compound 73 (AM03-66)]
[2]
  Ki: 11 nM
[3]
  EC50 Gail: 14 nM

## H-[AllylGly]RLS[Alnb]KGP[Nle]PF (staple 1-5) [Compound 28 (KT01-135)]
[5]
  Gαi1 Emax (%): 106%

## [pGlu]RRSEPLHKRVPFP (lactam 5-9) [Compound 77 (ABB01-106)]
[2]
  Ki: 6.2 nM
[3]
  EC50 Gail: 6.1 nM

B2: Compound 65 (KT02-99) (peptide)
peptide: Ac-KFRRQRPRLEHKKP[Nle]P[dcypTyr(OBn)]
modifications: lactam 10-13; reading uncertain; also: printed as Ac-K-F-R-R-Q-R-P-R-L-[E-H-K-K]-P-Nle-P-dcypTyrOBn
[7]
  EC50 Gαi1: 73 nM
[4]
  Ki: 4.16 nM

## Ac-KFRRQRPRLEHKKP[Nle]P[cypY] (lactam 10-13) [Compound 64 (KT02-78)]
[7]
  EC50 Gαi1: 19.4 nM
[4]
  Ki: 0.77 nM

## [pGlu]RRE[Nle]PKHSRVPFP (lactam 4-7) [Compound 75 (ABB01-105)]
[2]
  Ki: 59 nM
[3]
  EC50 Gail: 19 nM

## H-[AllylGly]RLS[AllylGly]KGP[Nle]PF (staple 1-5) [Compound 20 (KT01-100)]
[5]
  Gαi1 Emax (%): 100%

## Ac-KFRRQRPRLEHKKP[Nle]P[cypTyr(OBn)] (lactam 10-13) [Compound 63 (KT02-76)]
[7]
  EC50 Gαi1: 5.47 nM
[4]
  Ki: 0.25 nM

B3: Compound 50 (KT01-181) (peptide)
peptide: RKPXY
modifications: NH2-R-c[K(N-butenyl)-P-X]-Tyr(Obn): K(N-butenyl) 2 and X (allylglycine) 4 close the macrocycle; Tyr(OBn) 5
[6]
  Ki: 7180 nM

## [pGlu]RRK[Nle]PEHSRVPFP (lactam 4-7) [Compound 74 (AM03-38)]
[2]
  Ki: 261 nM

## Ac-KFRRQRPRLEHKKP[Nle]P[B3] (lactam 10-13; reading uncertain; also: B3 structure not given here) [Compound 69 (KT02-20)]
[4]
  Ki: 3 nM

## Guanidine-[AllylGly]RLS[AllylGly]KGP[Nle]PF (staple 1-5) [Compound 23 (KT01-121)]
[5]
  Gαi1 Emax (%): 103%

## [pGlu]RRSKPLHERVPFP (lactam 5-9) [Compound 76 (AM03-40)]
[2]
  Ki: 119 nM

## [pGlu]R[hArg]SEPLHKRVPFP (lactam 5-9) [Compound 91 (KT03-17)]
[2]
  Ki: 9.4 nM
[3]
  EC50 Gail: 4.3 nM

## Ac-KFRRQRPRLEHAKPAPF (lactam 10-13) [Compound 62 (KT02-62)]
[7]
  EC50 Gαi1: 33.4 nM

## [pGlu]RRSEPLHKRVPF[Hyp(OBn)] (lactam 5-9) [Compound 93 (KT03-19)]
[3]
  EC50 Gail: 47 nM

## KRRE[Nle]PLHSRVPFP (lactam 1-4) [Compound 72 (AM03-37)]
[2]
  Ki: 0.87 nM
[3]
  EC50 Gail: 1.7 nM

## Ac-ENTN[8‑aminooctanoic acid]RPRLKHKGP[Nle]PF (lactam 1-10) [Compound 46 (KT01-145)]
[6]
  Ki: 32 nM

## {Benzoyl(4-Br)}-RRSEPLHKRVP[Phe(4-Br)]P (lactam 4-8) [Compound 94 (KT04-16)]
[2]
  Ki: 0.29 nM
